Values of other authors as cited in article PMC8291714.

Target: N protein (N-RNA ring) (Rabies lyssavirus) (UniProt Q8JXF6)
UniProt Q8JXF6, sequence (Q8JXF6 whole entry): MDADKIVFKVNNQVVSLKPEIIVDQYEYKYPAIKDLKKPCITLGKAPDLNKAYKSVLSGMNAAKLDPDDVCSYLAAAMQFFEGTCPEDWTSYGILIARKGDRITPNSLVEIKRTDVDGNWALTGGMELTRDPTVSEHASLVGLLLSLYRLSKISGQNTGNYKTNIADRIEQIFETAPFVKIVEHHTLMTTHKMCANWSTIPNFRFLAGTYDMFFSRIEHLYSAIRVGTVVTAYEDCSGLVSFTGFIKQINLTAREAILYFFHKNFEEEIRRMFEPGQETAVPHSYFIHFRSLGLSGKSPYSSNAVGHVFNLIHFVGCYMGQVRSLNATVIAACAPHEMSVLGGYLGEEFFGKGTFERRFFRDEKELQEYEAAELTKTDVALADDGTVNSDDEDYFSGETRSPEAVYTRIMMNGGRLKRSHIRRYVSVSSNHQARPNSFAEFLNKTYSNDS

**Q.** For P protein CTD (from UniProt P22363), which Kd is on record?
**A.** Its Kd is 160 nM.
